Numbered stars: 1 amine (or outer) side, 2 acyl side, 3 side chain; on linkers, the order of the positions; unused ones are H or OH. Square brackets hold non-standard residues; d marks the D form. Ends that are not written are not given here. * marks the point of attachment. Ebe = (R)-2-amino-3-(methylsulfanyl)propanoic acid, CSC[C@H](N[*:1])C(=O)[*:2]; Sni = (S)-nipecotic acid, O=C([C@H]1CCCN([*:1])C1)[*:2]; Phe(3-Cl) = N[C@@H](Cc1cccc(Cl)c1)C(=O)O; cisHyp = O=C(O)[C@@H]1C[C@H](O)CN1; Hyp = O=C(O)[C@@H]1C[C@@H](O)CN1; NMeF = CN[C@@H](Cc1ccccc1)C(=O)O; tBuAla = CC(C)(C)C[C@H](N)C(=O)O; Cha = N[C@@H](CC1CCCCC1)C(=O)O; NMeL = CN[C@@H](CC(C)C)C(=O)O; d(αMeP) = C[C@]1(C(=O)O)CCCN1; hLeu = CC(C)CC[C@H](N)C(=O)O; Nle = CCCC[C@H](N)C(=O)O; Octanoyl = CCCCCCCC(=O)*; Nva = CCC[C@H](N)C(=O)O; dAze = O=C(O)[C@H]1CCN1; Hexanoyl = CCCCCC(=O)*; Ac3c = NC1(C(=O)O)CC1; Aib = CC(C)(N)C(=O)O; Occ = octanoic acid; Sar = CNCC(=O)O Some results are limits rather than exact numbers.

B1: JAL-0942 (peptide)
peptide: [Occ]AFG[Nle]PLDRI-NH2
modifications: not fully specified (residue 2); printed as Occ-ala-Phe-Gly-Nle-Pro-Leu-Asp-Arg-Ile-NH2
B2: JAL-0896 (peptide)
peptide: Octanoyl-AFGLP[tBuAla]DRI-NH2
modifications: not fully specified (some residues); printed as Occ-ala-Phe-Gly-Leu-Pro-Npg-Asp-Arg-Ile-NH2
B3: JAL-0940 (peptide)
peptide: [Occ]AFG[Cha]PLDRI-NH2
modifications: not fully specified (residue 2); printed as Occ-ala-Phe-Gly-Cha-Pro-Leu-Asp-Arg-Ile-NH2
B4: JAL-0927 (peptide)
peptide: [Occ]AFGLPLVRI-NH2
modifications: not fully specified (residue 2); printed as Occ-ala-Phe-Gly-Leu-Pro-Leu-Val-Arg-Ile-NH2
B5: JAL-0921 (peptide)
peptide: [Occ]AFGLPLD[Nmr]I-NH2
modifications: not fully specified (residue 2); printed as Occ-ala-Phe-Gly-Leu-Pro-Leu-Asp-Nmr-Ile-NH2
B6: JAL-0898 (peptide)
peptide: Octanoyl-AFGL[Hyp]LDRI-NH2
modifications: not fully specified (some residues); printed as Occ-ala-Phe-Gly-Leu-Hyp-Leu-Asp-Arg-Ile-NH2
B7: JAL-0943 (peptide)
peptide: [Occ]AF[Aib]LPLDRI-NH2
modifications: not fully specified (residue 2); printed as Occ-ala-Phe-Aib-Leu-Pro-Leu-Asp-Arg-Ile-NH2
B8: JAL-0903 (peptide)
peptide: Octanoyl-AFG[tBuAla]PLDRI-NH2
modifications: not fully specified (some residues); printed as Occ-ala-Phe-Gly-Npg-Pro-Leu-Asp-Arg-Ile-NH2
B9: JAL-0926 (peptide)
peptide: [Occ]AFGLPL[Nva]RI-NH2
modifications: not fully specified (residue 2); printed as Occ-ala-Phe-Gly-Leu-Pro-Leu-Nva-Arg-Ile-NH2
B10: JAL-0894 (peptide)
peptide: Octanoyl-AFGLPIDRI-NH2
modifications: not fully specified (some residues); printed as Occ-ala-Phe-Gly-Leu-Pro-Ile-Asp-Arg-Ile-NH2
B11: JAL-0895 (peptide)
peptide: Octanoyl-AFGLP[NMeL]DRI-NH2
modifications: not fully specified (some residues); printed as Occ-ala-Phe-Gly-Leu-Pro-Nml-Asp-Arg-Ile-NH2
B12: JAL-0924 (peptide)
peptide: [Occ]AFGLPLNRI-NH2
modifications: not fully specified (residue 2); printed as Occ-ala-Phe-Gly-Leu-Pro-Leu-Asn-Arg-Ile-NH2
B13: JAL-0906 (peptide)
peptide: [Occ]AXGLPLDRI-NH2
modifications: not fully specified (residues 2, 3); printed as Occ-ala-Nmf-Gly-Leu-Pro-Leu-Asp-Arg-Ile-NH2
B14: JAL-0929 (peptide)
peptide: [Occ]AFGLPLTRI-NH2
modifications: not fully specified (residue 2); printed as Occ-ala-Phe-Gly-Leu-Pro-Leu-Thr-Arg-Ile-NH2

This assay has as its target T1, natriuretic peptide receptor-B (human).
T1 chain: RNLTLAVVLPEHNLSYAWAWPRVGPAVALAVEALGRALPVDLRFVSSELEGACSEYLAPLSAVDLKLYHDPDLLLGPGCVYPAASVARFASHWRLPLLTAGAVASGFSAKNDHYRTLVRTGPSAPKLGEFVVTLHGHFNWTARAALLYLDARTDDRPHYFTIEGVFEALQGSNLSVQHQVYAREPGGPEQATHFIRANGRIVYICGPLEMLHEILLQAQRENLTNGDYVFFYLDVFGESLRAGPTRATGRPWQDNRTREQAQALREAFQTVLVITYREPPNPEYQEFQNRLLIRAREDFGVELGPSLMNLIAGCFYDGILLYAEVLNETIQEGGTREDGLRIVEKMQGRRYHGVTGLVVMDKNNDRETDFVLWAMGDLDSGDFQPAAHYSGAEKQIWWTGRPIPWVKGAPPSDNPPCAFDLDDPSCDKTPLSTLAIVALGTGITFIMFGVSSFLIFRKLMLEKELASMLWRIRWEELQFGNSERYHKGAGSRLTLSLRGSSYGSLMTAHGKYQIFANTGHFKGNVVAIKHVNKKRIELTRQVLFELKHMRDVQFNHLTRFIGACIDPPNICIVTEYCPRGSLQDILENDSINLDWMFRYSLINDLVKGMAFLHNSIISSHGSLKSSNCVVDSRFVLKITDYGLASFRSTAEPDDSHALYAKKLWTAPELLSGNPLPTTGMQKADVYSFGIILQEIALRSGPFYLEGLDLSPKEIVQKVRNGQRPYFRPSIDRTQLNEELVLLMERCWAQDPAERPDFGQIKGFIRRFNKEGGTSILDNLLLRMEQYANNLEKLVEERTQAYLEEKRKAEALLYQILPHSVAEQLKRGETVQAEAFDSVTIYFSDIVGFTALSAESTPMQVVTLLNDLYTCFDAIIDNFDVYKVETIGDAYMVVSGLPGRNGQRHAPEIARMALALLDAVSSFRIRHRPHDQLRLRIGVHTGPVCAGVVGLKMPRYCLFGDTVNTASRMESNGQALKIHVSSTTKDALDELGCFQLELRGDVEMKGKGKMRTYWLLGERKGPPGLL
The assay is described as follows: cell-based or functional assay.
For B1, the “EC50 group, cGMP in GTM-3 cells” value is at most 15 µM. As to [Occ][dA]FGL[cisHyp]LDRI-NH2 [JAL-0964], the “EC50 group, cGMP in GTM-3 cells” value was at most 15 µM. As to B2, the “EC50 group, cGMP in GTM-3 cells” value is at most 15 µM. Regarding [Occ][dA][NMeF]GLP[NMeL]DRI-NH2 [JAL-0954], the “EC50 group, cGMP in GTM-3 cells” value is at most 5 µM. In the case of B3 it was at most 15 µM; in that of [Occ][dP][NMeF]GLPLDRI-NH2 [JAL-0966], at most 15 µM; in that of B4, at most 15 µM. [Occ][dP]FGLP[NMeL]DRI-NH2 [JAL-0955_01]: the “EC50 group, cGMP in GTM-3 cells” value was at most 5 µM. Turning to B5, the “EC50 group, cGMP in GTM-3 cells” value is at most 15 µM. In the case of [Occ][dA][Phe(3-Cl)]GLPLDRI-NH2 [JAL-0946] it was at most 15 µM; in that of [Occ]GFGLPLDRI-NH2 [JAL-0951], at most 15 µM; in that of [Occ][dAze]FGLPLDRI-NH2 [JAL-0953], at most 5 µM. For the molecule [Occ][dA]F[Ac3c]LPLDRI-NH2 [JAL-0945], the “EC50 group, cGMP in GTM-3 cells” value is at most 15 µM.

For the molecule B6, the “EC50 group, cGMP in GTM-3 cells” value is at most 5 µM. Consider B7, for which the “EC50 group, cGMP in GTM-3 cells” value was at most 15 µM. Take B8: the “EC50 group, cGMP in GTM-3 cells” value was at most 15 µM. Turning to [Occ][Sar]FGLPLDRI-NH2 [JAL-0950], the “EC50 group, cGMP in GTM-3 cells” value is at most 15 µM. For the molecule B9, the “EC50 group, cGMP in GTM-3 cells” value is at most 15 µM. The figure for B10 is at most 15 µM. In the case of B11 it was at most 5 µM; in that of [Occ][Sni][NMeF]GLP[NMeL]DRI-NH2 [JAL-0958_01], at most 5 µM; in that of [Occ][dA]FGL[d(αMeP)]LDRI-NH2 [JAL-0962], at most 15 µM. Turning to [Occ][dP][NMeF]GLP[NMeL]DRI-NH2 [JAL-0957], the “EC50 group, cGMP in GTM-3 cells” value is at most 15 µM. As for Hexanoyl-[Ebe][dP]FGLPIDRIS[Ebe]-NH2 [JAL-0533], the “EC50 group, cGMP in GTM-3 cells” value is at most 15 µM.

As to [Occ][dA]F[dA]LPLDRI-NH2 [JAL-0944], the “EC50 group, cGMP in GTM-3 cells” value is at most 15 µM. For the molecule [Occ][dA]FGLP[hLeu]DRI-NH2 [JAL-0959], the “EC50 group, cGMP in GTM-3 cells” value is at most 15 µM. Consider B12, for which the “EC50 group, cGMP in GTM-3 cells” value was at most 15 µM. The figure for [Occ][Sni]FGLP[NMeL]DRI-NH2 [JAL-0956] is at most 5 µM; for B13 it is at most 15 µM. Regarding [Occ][Sni][NMeF]GLPLDRI-NH2 [JAL-0967_01], the “EC50 group, cGMP in GTM-3 cells” value is at most 15 µM.

Consider B14, for which the “EC50 group, cGMP in GTM-3 cells” value is at most 15 µM.

Source of the values: patent US9187525B2, “Methods of treating ophthalmic diseases using NPR-B agonists” (Shire Orphan Therapies GmbH, dated 2015).
